This is an account of results in IntAct's records for PubMed 29997244.

B1: DnaJ homolog subfamily C member 5 (Homo sapiens), Q9H3Z4 (parent)
chain: MADQRQRSLSTSGESLYHVLGLDKNATSDDIKKSYRKLALKYHPDKNPDNPEAADKFKEINNAHAILTDATKRNIYDKYGSLGLYVAEQFGEENVNTYFVLSSWWAKALFVFCGLLTCCYCCCCLCCCFNCCCGKCKPKAPEGEETEFYVSPEDLEAQLQSDEREATDTPIVIQPASATETTQLTADSHPSYHTDGFN
partner: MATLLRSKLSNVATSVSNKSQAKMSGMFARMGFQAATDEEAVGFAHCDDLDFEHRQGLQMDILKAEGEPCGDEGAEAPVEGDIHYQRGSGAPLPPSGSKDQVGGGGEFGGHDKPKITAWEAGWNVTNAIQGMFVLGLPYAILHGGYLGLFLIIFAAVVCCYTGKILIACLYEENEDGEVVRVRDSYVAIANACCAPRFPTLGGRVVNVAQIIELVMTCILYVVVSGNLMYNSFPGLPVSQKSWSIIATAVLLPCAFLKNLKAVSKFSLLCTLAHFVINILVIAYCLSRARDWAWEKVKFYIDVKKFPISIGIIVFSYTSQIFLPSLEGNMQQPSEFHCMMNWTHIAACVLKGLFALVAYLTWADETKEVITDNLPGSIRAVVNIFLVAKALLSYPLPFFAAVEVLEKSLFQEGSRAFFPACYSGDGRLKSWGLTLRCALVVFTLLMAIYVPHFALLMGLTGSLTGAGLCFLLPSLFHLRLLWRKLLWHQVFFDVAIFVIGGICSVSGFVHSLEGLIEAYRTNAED
B2: DnaJ homolog subfamily C member 5 (Homo sapiens), Q9H3Z4 (parent)
chain: B1 chain
partner: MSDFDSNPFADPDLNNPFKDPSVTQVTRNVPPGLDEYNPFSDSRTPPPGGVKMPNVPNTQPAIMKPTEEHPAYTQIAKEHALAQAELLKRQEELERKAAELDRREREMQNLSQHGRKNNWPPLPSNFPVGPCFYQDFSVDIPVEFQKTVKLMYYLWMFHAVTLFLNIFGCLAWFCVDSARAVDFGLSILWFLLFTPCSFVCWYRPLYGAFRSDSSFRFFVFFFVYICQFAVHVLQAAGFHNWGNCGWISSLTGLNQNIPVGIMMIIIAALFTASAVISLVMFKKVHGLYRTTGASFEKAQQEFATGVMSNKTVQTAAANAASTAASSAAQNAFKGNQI
B3: DnaJ homolog subfamily C member 5 (Homo sapiens), Q9H3Z4 (parent)
chain: B1 chain
partner: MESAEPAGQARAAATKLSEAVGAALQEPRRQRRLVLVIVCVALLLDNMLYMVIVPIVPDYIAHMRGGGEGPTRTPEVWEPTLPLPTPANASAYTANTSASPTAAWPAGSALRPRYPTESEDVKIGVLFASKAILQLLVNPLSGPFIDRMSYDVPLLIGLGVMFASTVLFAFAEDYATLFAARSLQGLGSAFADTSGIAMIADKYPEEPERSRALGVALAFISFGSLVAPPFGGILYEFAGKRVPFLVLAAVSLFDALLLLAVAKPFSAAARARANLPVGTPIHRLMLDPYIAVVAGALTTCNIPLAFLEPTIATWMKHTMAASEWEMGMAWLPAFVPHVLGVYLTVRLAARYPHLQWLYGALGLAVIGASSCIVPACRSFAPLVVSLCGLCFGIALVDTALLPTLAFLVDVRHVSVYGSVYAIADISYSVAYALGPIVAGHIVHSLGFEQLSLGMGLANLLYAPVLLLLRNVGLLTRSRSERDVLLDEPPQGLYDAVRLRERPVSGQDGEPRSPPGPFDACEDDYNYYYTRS
B4: DnaJ homolog subfamily C member 5 (Homo sapiens), Q9H3Z4 (parent)
chain: B1 chain
partner: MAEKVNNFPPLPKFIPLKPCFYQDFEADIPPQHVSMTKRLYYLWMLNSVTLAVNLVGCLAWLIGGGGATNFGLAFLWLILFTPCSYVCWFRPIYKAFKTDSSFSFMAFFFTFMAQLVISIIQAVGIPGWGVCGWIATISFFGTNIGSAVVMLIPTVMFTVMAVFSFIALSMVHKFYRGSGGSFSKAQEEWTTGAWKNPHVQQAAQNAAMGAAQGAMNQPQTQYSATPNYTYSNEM
B5: DnaJ homolog subfamily C member 5 (Homo sapiens), Q9H3Z4 (parent)
chain: B1 chain
partner: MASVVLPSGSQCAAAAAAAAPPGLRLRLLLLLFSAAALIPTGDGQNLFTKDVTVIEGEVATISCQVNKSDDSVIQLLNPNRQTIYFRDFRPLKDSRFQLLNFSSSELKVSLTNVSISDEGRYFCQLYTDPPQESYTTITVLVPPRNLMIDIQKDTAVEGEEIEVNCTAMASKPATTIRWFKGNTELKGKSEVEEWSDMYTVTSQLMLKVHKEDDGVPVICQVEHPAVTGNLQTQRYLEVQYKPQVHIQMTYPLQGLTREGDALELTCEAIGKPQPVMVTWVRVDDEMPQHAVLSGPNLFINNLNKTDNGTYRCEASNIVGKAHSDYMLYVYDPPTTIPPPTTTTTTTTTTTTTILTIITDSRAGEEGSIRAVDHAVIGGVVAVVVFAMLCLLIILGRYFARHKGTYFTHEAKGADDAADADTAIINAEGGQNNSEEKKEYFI
B6: DnaJ homolog subfamily C member 5 (Homo sapiens), Q9H3Z4 (parent)
chain: B1 chain
partner: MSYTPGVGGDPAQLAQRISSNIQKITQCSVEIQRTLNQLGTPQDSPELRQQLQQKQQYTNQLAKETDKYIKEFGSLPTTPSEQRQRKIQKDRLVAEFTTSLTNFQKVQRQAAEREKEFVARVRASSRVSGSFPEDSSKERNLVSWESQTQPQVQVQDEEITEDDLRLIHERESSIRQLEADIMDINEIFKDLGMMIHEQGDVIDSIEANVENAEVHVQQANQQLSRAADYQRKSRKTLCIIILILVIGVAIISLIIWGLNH

The variants in one assay derive from B1. Conditions: with viaat_human SLC32A1, Q9H598.
Take MADQRQRSLSTSGESLYHVLGLDKNATSDDIKKSYRKLALKYHPDKNPDNPEAADKFKEINNAHAILTDATKRNIYDKYGSLGLYVAEQFGEENVNTYFVLSSWWAKALFVFCGRLTCCYCCCCLCCCFNCCCGKCKPKAPEGEETEFYVSPEDLEAQLQSDEREATDTPIVIQPASATETTQLTADSHPSYHTDGFN: the “effect of a mutation on the interaction” value is listed as “with no effect”.

The variants in a further assay derive from B2. Conditions: with scam1_human SCAMP1, O15126.
MADQRQRSLSTSGESLYHVLGLDKNATSDDIKKSYRKLALKYHPDKNPDNPEAADKFKEINNAHAILTDATKRNIYDKYGSLGLYVAEQFGEENVNTYFVLSSWWAKALFVFCGRLTCCYCCCCLCCCFNCCCGKCKPKAPEGEETEFYVSPEDLEAQLQSDEREATDTPIVIQPASATETTQLTADSHPSYHTDGFN: the “effect of a mutation on the interaction” value is listed as “with no effect”.

The next assay covers variants of B3. Conditions: with vacht_human SLC18A3, Q16572.
MADQRQRSLSTSGESLYHVLGLDKNATSDDIKKSYRKLALKYHPDKNPDNPEAADKFKEINNAHAILTDATKRNIYDKYGSLGLYVAEQFGEENVNTYFVLSSWWAKALFVFCGRLTCCYCCCCLCCCFNCCCGKCKPKAPEGEETEFYVSPEDLEAQLQSDEREATDTPIVIQPASATETTQLTADSHPSYHTDGFN: the “effect of a mutation on the interaction” value is “with no effect”.

Variants of B4 are the subject of a further assay. Particulars: with scam5_human SCAMP5, Q8TAC9.
On to MADQRQRSLSTSGESLYHVLGLDKNATSDDIKKSYRKLALKYHPDKNPDNPEAADKFKEINNAHAILTDATKRNIYDKYGSLGLYVAEQFGEENVNTYFVLSSWWAKALFVFCGRLTCCYCCCCLCCCFNCCCGKCKPKAPEGEETEFYVSPEDLEAQLQSDEREATDTPIVIQPASATETTQLTADSHPSYHTDGFN, for which the “effect of a mutation on the interaction” value is given as “with no effect”.

The variants in a further assay derive from B5. Conditions: with cadm1_human CADM1, Q9BY67.
For the variant MADQRQRSLSTSGESLYHVLGLDKNATSDDIKKSYRKLALKYHPDKNPDNPEAADKFKEINNAHAILTDATKRNIYDKYGSLGLYVAEQFGEENVNTYFVLSSWWAKALFVFCGRLTCCYCCCCLCCCFNCCCGKCKPKAPEGEETEFYVSPEDLEAQLQSDEREATDTPIVIQPASATETTQLTADSHPSYHTDGFN, the “effect of a mutation on the interaction” value was “decreasing interaction strength”.

Variants of B6 are the subject of another assay. Conditions: with stx7_human STX7, O15400.
As for MADQRQRSLSTSGESLYHVLGLDKNATSDDIKKSYRKLALKYHPDKNPDNPEAADKFKEINNAHAILTDATKRNIYDKYGSLGLYVAEQFGEENVNTYFVLSSWWAKALFVFCGRLTCCYCCCCLCCCFNCCCGKCKPKAPEGEETEFYVSPEDLEAQLQSDEREATDTPIVIQPASATETTQLTADSHPSYHTDGFN, the “effect of a mutation on the interaction” value was “decreasing interaction strength”.
